Common to all, as to experiment: purified protein
Substrate in series [1]: C=C(C)[C@@H]1CC=C(C)C(=O)C1
Particulars: co-substrate F420H2; apparent value.

Substrate in series [2]: C=C(C)[C@H]1CC=C(C)C(=O)C1
Particulars: co-substrate F420H2; apparent value.

Substrate in series [3]: CC1(C)[C@H]2CC=C(C=O)[C@@H]1C2
Particulars: co-substrate F420H2; apparent value.

Substrate in series [4]: CC1=CC(=O)CC(C)(C)C1=O
Particulars: co-substrate F420H2; apparent value; fit with substrate inhibition.

Substrate in series [5]: CC1=CC(=O)CC1
Particulars: co-substrate F420H2; apparent value.

Substrate in series [6]: CC1=CC(=O)CCC1
Particulars: co-substrate F420H2, apparent value.

Substrate in series [7]: CC1=CCCC1=O
Particulars: co-substrate F420H2; apparent value.

Substrate in series [8]: CC1=CCCCC1=O
Particulars: co-substrate F420H2; apparent value.

Data on two proteins can be found in publication doi:10.1101/2023.02.21.529347v1.

One may read the Km as the concentration of substrate that gives half-maximal velocity. A word on the kcat: it is the maximal rate divided by the concentration of active sites.

B1: MSMEG_2850 (Mycolicibacterium smegmatis MC2 155) (protein)
chain: MTEAIDWDQMNNQVIKEFRETGGKAGGLFEGSPLVLVHHTGAKSGKQRIAPLVPLLDGDRIYIFGSKGGADSHPDWYHNLVANPDTVVELGTETFPVKARVLTGAERDEIYAKQVAVAPQFGDYQRKTTRVIPVVELQRV
For B1, the Km turned out to be 1620 ± 180 µM in the series “purified protein [1]”; 2070 ± 390 µM in the series “purified protein [2]”; 580 ± 70 µM in “purified protein [3]”; 100 ± 8 µM in “purified protein [4]”; 4300 ± 740 µM in “purified protein [5]”; 6730 ± 6840 µM in “purified protein [6]” (fit with substrate inhibition). Besides, the values for the Km in “purified protein [7]” and in “purified protein [8]” were 7670 ± 3210 µM and 9180 ± 2220 µM, respectively. Besides, the kcat in “purified protein [1]” stood at 0.08 ± 0.003 s⁻¹; in “purified protein [2]” it was 0.05 ± 0.004 s⁻¹; in the series “purified protein [3]”, 0.16 ± 0.005 s⁻¹; in “purified protein [4]”, 1.35 ± 0.028 s⁻¹; in the series “purified protein [5]” it was 0.10 ± 0.008 s⁻¹; in the series “purified protein [6]” (fit with substrate inhibition), 4.02 ± 3.30 s⁻¹. The turnover number (kcat) came to 0.16 ± 0.04 s⁻¹ in “purified protein [7]” and 1.59 ± 0.23 s⁻¹ in the series “purified protein [8]”.

B2: MSMEG_2027 (Mycolicibacterium smegmatis MC2 155) (protein)
chain: MTDAELSPTDWVREQTERILEQGTTDGVHVLDRPIVLFTTTGAKSGKKRYVPLMRVEENGKYAMVASKGGDPKHPSWYFNVKANPTVSVQDGDKVLPDRTARELEGEEREHWWKLAVEAYPPYAEYQTKTDRLIPVFIVE
B2: the Km in “purified protein [1]” was 1290 ± 320 µM; in the series “purified protein [2]” it was 1300 ± 280 µM; in “purified protein [3]” it was 310 ± 30 µM; in “purified protein [4]” it was 3880 ± 680 µM; in the series “purified protein [5]” it was 120 ± 50 µM; in the series “purified protein [6]” it was 4290 ± 3460 µM. In addition, the Km in the series “purified protein [7]” worked out at 1000 ± 130 µM; in the series “purified protein [8]”, 2560 ± 480 µM. For the same protein, the kcat turned out to be 0.11 ± 0.008 s⁻¹ in “purified protein [1]”; 0.09 ± 0.006 s⁻¹ in the series “purified protein [2]”; 0.74 ± 0.017 s⁻¹ in “purified protein [3]”; 0.39 ± 0.05 s⁻¹ in the series “purified protein [4]”; 0.01 ± 0.001 s⁻¹ in “purified protein [5]”; 1.10 ± 0.41 s⁻¹ in the series “purified protein [6]”. The kcat amounted to 0.55 ± 0.02 s⁻¹ in the series “purified protein [7]” and 0.62 ± 0.05 s⁻¹ in “purified protein [8]”.
